Experimental data: article PMC8648840, “Functional consequences of TCF4 missense substitutions associated with Pitt-Hopkins syndrome, mild intellectual disability, and schizophrenia” (The Journal of Biological Chemistry, 2021)

T1: achaete-scute homolog 1 (ASCL1), expressed in cells (UniProt P50553 1-236)
T1 sequence (looked up): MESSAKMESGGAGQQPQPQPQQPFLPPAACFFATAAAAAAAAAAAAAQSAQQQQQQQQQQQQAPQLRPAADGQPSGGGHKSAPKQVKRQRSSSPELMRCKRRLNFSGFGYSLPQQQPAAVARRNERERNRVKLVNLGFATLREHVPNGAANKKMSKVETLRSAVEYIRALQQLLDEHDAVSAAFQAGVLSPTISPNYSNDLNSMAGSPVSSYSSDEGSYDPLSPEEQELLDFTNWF


Target: T1, achaete-scute homolog 1 (ASCL1), …
Assay: cell-based or functional assay

| luciferase reporter (12 μE5 E-boxes, TK promoter) in depolarized rat primary neurons; increase when ASCL1 was coexpressed [fold] | luciferase reporter (12 μE5 E-boxes, minimal promoter) in HEK293 cells, coexpressed with ASCL1; reduction against WT TCF4-B¯ [fold] | luciferase reporter (12 μE5 E-boxes, minimal promoter) in HEK293 cells, coexpressed with ASCL1; increase against WT TCF4-B¯ [fold] | luciferase reporter in rat primary neurons, basal conditions, coexpressed with ASCL1; increase against WT TCF4-B¯ [fold] | Binder |
| --- | --- | --- | --- | --- |
| 2.5 |  |  |  | Transcription factor 4 isoform TCF4-A¯, wild type (natural protein, human, UniProt P15884-6 1-507, looked up) MYCAYTIPGMGGNSLMYYYNGKAVYAPSASTADYNRDSPGYPSSKPATSTFPSSFFMQDGHHSSDPWSSSSGMNQPGYAGMLGNSSHIPQSSSYCSLHPHERLSYPSHSSADINSSLPPMSTFHRSGTNHYSTSSCTPPANGTDSIMANRGSGAAGSSQTGDALGKALASIYSPDHTNNSFSSNPSTPVGSPPSLSAGTAVWSRNGGQASSSPNYEGPLHSLQSRIEDRLERLDDAIHVLRNHAVGPSTAMPGGHGDMHGIIGPSHNGAMGGLGSGYGTGLLSANRHSLMVGTHREDGVALRGSHSLLPNQVPVPQLPVQSATSPDLNPPQDPYRGMPPGLQGQSVSSGSSEIKSDDEGDENLQDTKSSEDKKLDDDKKDIKSITSNNDDEDLTPEQKAEREKERRMANNARERLRVRDINEAFKELGRMVQLHLKSDKPQTKLLILHQAVAVILSLEQQVRERNLNPKAACLKRREEEKVSSEPPPLSLAGPHPGMGDASNHMGQM |
|  | 4.8 |  |  | TCF4-B¯ A587P (natural protein, human, UniProt P15884-3 1-671, looked up) MHHQQRMAALGTDKELSDLLDFSAMFSPPVSSGKNGPTSLASGHFTGSNVEDRSSSGSWGNGGHPSPSRNYGDGTPYDHMTSRDLGSHDNLSPPFVNSRIQSKTERGSYSSYGRESNLQGCHQQSLLGGDMDMGNPGTLSPTKPGSQYYQYSSNNPRRRPLHSSAMEVQTKKVRKVPPGLPSSVYAPSASTADYNRDSPGYPSSKPATSTFPSSFFMQDGHHSSDPWSSSSGMNQPGYAGMLGNSSHIPQSSSYCSLHPHERLSYPSHSSADINSSLPPMSTFHRSGTNHYSTSSCTPPANGTDSIMANRGSGAAGSSQTGDALGKALASIYSPDHTNNSFSSNPSTPVGSPPSLSAGTAVWSRNGGQASSSPNYEGPLHSLQSRIEDRLERLDDAIHVLRNHAVGPSTAMPGGHGDMHGIIGPSHNGAMGGLGSGYGTGLLSANRHSLMVGTHREDGVALRGSHSLLPNQVPVPQLPVQSATSPDLNPPQDPYRGMPPGLQGQSVSSGSSEIKSDDEGDENLQDTKSSEDKKLDDDKKDIKSITSNNDDEDLTPEQKAEREKERRMANNARERLRVRDINEPFKELGRMVQLHLKSDKPQTKLLILHQAVAVILSLEQQVRERNLNPKAACLKRREEEKVSSEPPPLSLAGPHPGMGDASNHMGQM |
|  | 1.4 |  |  | TCF4-B¯ S253R (natural protein, human, UniProt P15884-3 1-671, looked up) MHHQQRMAALGTDKELSDLLDFSAMFSPPVSSGKNGPTSLASGHFTGSNVEDRSSSGSWGNGGHPSPSRNYGDGTPYDHMTSRDLGSHDNLSPPFVNSRIQSKTERGSYSSYGRESNLQGCHQQSLLGGDMDMGNPGTLSPTKPGSQYYQYSSNNPRRRPLHSSAMEVQTKKVRKVPPGLPSSVYAPSASTADYNRDSPGYPSSKPATSTFPSSFFMQDGHHSSDPWSSSSGMNQPGYAGMLGNSSHIPQSSRYCSLHPHERLSYPSHSSADINSSLPPMSTFHRSGTNHYSTSSCTPPANGTDSIMANRGSGAAGSSQTGDALGKALASIYSPDHTNNSFSSNPSTPVGSPPSLSAGTAVWSRNGGQASSSPNYEGPLHSLQSRIEDRLERLDDAIHVLRNHAVGPSTAMPGGHGDMHGIIGPSHNGAMGGLGSGYGTGLLSANRHSLMVGTHREDGVALRGSHSLLPNQVPVPQLPVQSATSPDLNPPQDPYRGMPPGLQGQSVSSGSSEIKSDDEGDENLQDTKSSEDKKLDDDKKDIKSITSNNDDEDLTPEQKAEREKERRMANNARERLRVRDINEAFKELGRMVQLHLKSDKPQTKLLILHQAVAVILSLEQQVRERNLNPKAACLKRREEEKVSSEPPPLSLAGPHPGMGDASNHMGQM |
|  |  | 2.2 | 2.8 | TCF4-B¯ R569W (natural protein, human, UniProt P15884-3 1-671, looked up) MHHQQRMAALGTDKELSDLLDFSAMFSPPVSSGKNGPTSLASGHFTGSNVEDRSSSGSWGNGGHPSPSRNYGDGTPYDHMTSRDLGSHDNLSPPFVNSRIQSKTERGSYSSYGRESNLQGCHQQSLLGGDMDMGNPGTLSPTKPGSQYYQYSSNNPRRRPLHSSAMEVQTKKVRKVPPGLPSSVYAPSASTADYNRDSPGYPSSKPATSTFPSSFFMQDGHHSSDPWSSSSGMNQPGYAGMLGNSSHIPQSSSYCSLHPHERLSYPSHSSADINSSLPPMSTFHRSGTNHYSTSSCTPPANGTDSIMANRGSGAAGSSQTGDALGKALASIYSPDHTNNSFSSNPSTPVGSPPSLSAGTAVWSRNGGQASSSPNYEGPLHSLQSRIEDRLERLDDAIHVLRNHAVGPSTAMPGGHGDMHGIIGPSHNGAMGGLGSGYGTGLLSANRHSLMVGTHREDGVALRGSHSLLPNQVPVPQLPVQSATSPDLNPPQDPYRGMPPGLQGQSVSSGSSEIKSDDEGDENLQDTKSSEDKKLDDDKKDIKSITSNNDDEDLTPEQKAEREKEWRMANNARERLRVRDINEAFKELGRMVQLHLKSDKPQTKLLILHQAVAVILSLEQQVRERNLNPKAACLKRREEEKVSSEPPPLSLAGPHPGMGDASNHMGQM |
|  |  | 1.6 | 2.4 | TCF4-B¯ N585D (natural protein, human, UniProt P15884-3 1-671, looked up) MHHQQRMAALGTDKELSDLLDFSAMFSPPVSSGKNGPTSLASGHFTGSNVEDRSSSGSWGNGGHPSPSRNYGDGTPYDHMTSRDLGSHDNLSPPFVNSRIQSKTERGSYSSYGRESNLQGCHQQSLLGGDMDMGNPGTLSPTKPGSQYYQYSSNNPRRRPLHSSAMEVQTKKVRKVPPGLPSSVYAPSASTADYNRDSPGYPSSKPATSTFPSSFFMQDGHHSSDPWSSSSGMNQPGYAGMLGNSSHIPQSSSYCSLHPHERLSYPSHSSADINSSLPPMSTFHRSGTNHYSTSSCTPPANGTDSIMANRGSGAAGSSQTGDALGKALASIYSPDHTNNSFSSNPSTPVGSPPSLSAGTAVWSRNGGQASSSPNYEGPLHSLQSRIEDRLERLDDAIHVLRNHAVGPSTAMPGGHGDMHGIIGPSHNGAMGGLGSGYGTGLLSANRHSLMVGTHREDGVALRGSHSLLPNQVPVPQLPVQSATSPDLNPPQDPYRGMPPGLQGQSVSSGSSEIKSDDEGDENLQDTKSSEDKKLDDDKKDIKSITSNNDDEDLTPEQKAEREKERRMANNARERLRVRDIDEAFKELGRMVQLHLKSDKPQTKLLILHQAVAVILSLEQQVRERNLNPKAACLKRREEEKVSSEPPPLSLAGPHPGMGDASNHMGQM |
